Measured values as given in the DeepSol protein solubility set.

Test: soluble on expression in E. coli; label from the status in PepcDB or PDB records

Row | Sequence | soluble on expression in E. coli
1 | GMTASTAPQTEPHKTSAPESGPVMLLVATIKGAWFLASDPARRTWELRGPVFLGHTIHHIVQDPREPERMLMAARTGHLGPTVFRSDDGGGNWTEATRPPAFNKAPEGETGRVVDHVFWLTPGHASEPGTWYAGTSPQGLFRSTDHGASWEPVAGFNDHPMRRAWTGGEQDGTPDGPKMHSILVDPRDPKHLYIGMSSGGVFESTDAGTDWKPLNRGCAANFLPDPNVEFGHDPHCVVQHPAAPDILYQQNHCGIYRMDRREGVWKRIGDAMPREVGDIGFPIVVHQRDPRTVWVFPMDGSDVWPRVSPGGKPAVYVTRDAGESWQRQDRGLPTDQAWLTVKRQAMTADAHAPVGVYFGTTGGEIWASADEGEHWQCIASHLPHIYAVQSARPV | soluble
2 | MSLTDDEISSTETAPDIATQPPLFVLGVGAARLDAGRLAELLDAVAGAANLAIMLLLRDRQLLDEAHLRALLGKQATLLSVPFDGEKLQPGRFYLPPADTVVTLEEGRIRLRALPNGESDHGLIDSFFVSMAHDQDGNVIGLIMGRFDGDGTLGTAAIKECGGLALAVDDASLHGLDLRSASNPAAITDHILPLPQLTARIAAHMQRHHGFGHPGPLGVRNGSESDKLSQIAAILRNTTGHDFHGYKRATFLRRVQQRMQVAQVEMLEQYLHILRYRFDEPLQLFNDLLIGVTKFFRDRRGFELLEQQVIPRLFKGKHTDDSMRVWVLGCSTGEEAYSLAMLLREHAETLDSAPRIQIFASDIDGRALATARVGRYASSIVGEVALERLRRWFVKEGDTYVVNKELRELCVFSQHSIVKDPPFSRLDLVSCRNLLIYLDAELQNRVIPIFHFAIRPGGYLFLGNAENVSLQAQLFTPVDRSVRVFQREGHHHHHH | not soluble
3 | MGSDKIHHHHHHMVAIEKGGARLVFAPEVGGAVAAFTVDGREVLRPTAPQVDDALLTANFPLVSFCNRIPNGRFEWRGTSVTLPPNLEGHPHPLHGQGWRMPWAVEAIETDRALLVFEHPAGDWPWAYRAEQAFTLSETGFRVTLTVINTGEEDMPAGLGFHPYFPARPGERLAAQNDGVWLIDEDVLPTVRHAGRWGPDWAVGAPVAGHALIDHCYTGWNQRAVLSAPGRPDTVITASPDCAWLHVYAPPGEGYYCVEPCASRPNPFGEGETGMVTLCPGERRSIWMEIATG | not soluble
4 | MSGLPQGRPTFGAAQNVSAVVAYDLSAHMLDVVAQAAEARQLKNITTRQGYAESLPFADNAFDIVISRYSAHHWHDVGAALREVNRILKPGGRLIVMDVMSPGHPVRDIWLQTVEALRDTSHVRNYASGEWLTLINEANLIVDNLITDKLPLEFSSWVARMRTPEALVDAIRIYQQSASTEVRTYFALQNDGFFTSDIIMVDAHKAALEHHHHHH | not soluble
5 | MSAKFQQETLKSRFAQAKVLVVGDVMLDRYWFGDVSRISPEAPVPVAKIGRIDQRAGGAANVARNIASLGGRAGLLSVTGNDEAADALDALMVQDGVASYLMRDKQIATTVKLRVVARNQQLIRLDFEEHPNCEVLEQIKQKYREILPEYDAIIFSDYGKGGLSHISDMIDWAKHAGKTVLIDPKGDDYEKYVGATLITPNRAELKEVVGSWKNESELTEKAQNLRRHLDLTAVLLTRSEEGMTLFSEGEPIYQPTRAQEVYDVSGAGDTVIAGMGLGLAAGCTMPEAMYLANTAAGVVVAKLGTAVCSFAELIKALSGQSTM | not soluble
6 | MPTPAYIKIVGQTQGNITAGAFTADSVGNVFQQGHEDQILVQEIKHEVTTPTDPQSGQPSGQRVHKPFIFTSSLNKATPLMYQALATGEMLPTVEVSWYRTSSEGKQEHFFTTTLEDATIVSINTVLPHALDKDNENYTQLVEVSLAYRKITWAHDVANTEGSDDWRAPAA | not soluble
7 | MPEQAQTRRVFLFLQGPHGPFFHALGRMLRAAGAEVWRVGFNAGDRAFWFHPPSFIPYKGAHEDWPQAFADLLERKGVTDIVLYGDTRPIHASAVAAAKARGLGVHVFEEGYLRPYWVTYEREGSNGNSRLMDMTLEEMRAALALSDLETPLPPSHWGDMRQHIFYGALYHWFVMFTNQGYRRFKPHRDLPVTKEFQLYLQRLLLMPALAVERMLATARIRNGGFPYHLALLQLEHDSSFQQHSPFSTMTDFLEEIFDGFARGAPQHHHLVVKAHPLENGRVPLRREVRRLARQHGLEGRVHYVRGGKLAQLLNDARSAVTVNSTAGQQVLWRGIPLKVFGRAVYDKPEFVSTQTASEFFAAANRPDARAYKEYRRYLLETSQLPGGFYSRKGRRQLLRQVVDMMLSPDDPYDALKSGKAAPRQQLRLVN | not soluble
8 | MDKIYIHDMEFYGYHGVFPEENKLGQRFKVDLTVELDLKRAGESDDLEHSVNYGELFELCRKVVEDRTYKLVESIAENIATDILKQYESISRCTIKVIKPDPPIPGHYRAVAVEITRERP | not soluble
9 | MPTRKSKILDVALSNSVISNLNIMAPIGSSDHNTIKFTVQLLQNISVPKKMIPDFSKLDWPCCATYFENIEWGHIRTMFSQAVPTMPMPETSKPVPQYLRSFEQMVKNQFSKTIMSKTMNDFIEYIYLARKYRKKLRKYLSNLEVKLFKKKGNTLIDNDENEIVSELDKANLLASYFEAQYTNQNNTNFALDDDFVSDQPIPWVTDAEVLKVIMASKKSCSVTSDQVPFTFIKILSPLISSVLAQIFNLSMMRGQVPHAWTESIVIPLDKITNANNPTDFRPISLTSHLCRVYERCILAKIELFLIDNKFWSQNQHGFRPKKSTVTNMLESLNDWSKSIDLGEQIDIIYLDFSKAFDRLPHDLLLDKLVSLRMNKNLLIWLNEFLSNRSFRVRIGQTLSSRKLATCGVPQGAVLSPLLFGIYVNDISSILPEKVACKQFADDTKLYVSTPKTESENNLQSALDAVVDWTRGSKLTLNQSETVHVTVGKRRTDFKYHLDGYPIERKAITRDLGFLISEKLDFSEHWRKCINLAKFQLANMFNQYSTSNKKLMILLYKTFIRPRLEYGTVVSSPTKKSDEKAIESVQNAFTRRLYSRIKKRYINPTDKDYKTAMERNELFDLQTLSTRRKIIDRIQVIRMNNGKVDLKTSEFFEQQETHTRSKKKYIWSTVPIKHRVFQTFILLMVLVQFSIGLGNFARDIRNFGGAGSGNKTCDPSRDNDCDSPATVPSSTTKAPRYRNNTTESPPPTPPSSPPAPEGIYSFLQNNFIPRKINNLPVFQDVTTKGIQHVILVSSRLRTSLQTEKSRISQNSISYLIIDFLKSITLEIEALTNTSNCKPNSKDLRCPGKPLFCKFKNFDAAECKCSEPRAKVCKEDFEFDAQREYCTKSVKHPKDLRCEGELLFFKFHWNTTACHCINHQRDRVCAHDFQSDEDKKYQCNKKPTDLRCKKQKLYCKFHLDDKDCRCFESNQKACKKGVSGFYSSNDTLKFPSSIWRQFKLYFKKILQIFNRQMRGIFNVIHHRLHHSARKT | not soluble
10 | MSLYMTIGRIFDLSVGKYPNKEALVEPEKNIRWTYKQWDEQINKTAHALLEEGVRKGDTVSVYLYNCHEFVNVYLACAKIGAIFNPINFRLKAKEVSYILQDASSKVVVFEKAVESTVAIIERDFPNTSFWSIENDKPSYASSYHEKVNEASSEKVNIEIDEMDYCSMLYTSGTTGHPKGVLHRHREMAEHSMICTYFLKYNRDSVGLVVAPLYHCGELNAGIIPRIQVGGKNVILHHFDTETVLHTIQEEKITTFFAAPTMWNMLLQKDLAQYDLTSMKIGIYGGAAMAPALVKECKERLYIDLVQIYGMTEMGPVVAFLVEEDQITKAGSAGTPCFSHEVRIVKPNEDAPAEPDDVLPPYEVGEIILRGPTMMAGYHNREEANKKSMYKGWYHSGDLGYFDKDGYLFVADRVDDMVISGGVNIYPREIEDFLHSHPGILDVAVLGEPDELWGERVVAVIVKKDETITEADLETYCKESDELADYKRPRHYLFVDELPRNASGKLQKFVLRESLKGAKEGHHHHHH | soluble
11 | MGSDKIHHHHHHMGASFNQAGFVKRIFTSHGTTLFVDTSSGELRHGLMEYSPNNVLLTKDGKSAHIRFVDGPTDIVYFTEYSAISGSKRIDGIDALNLMPDNTLTIVDLPRNKFGLVQNGTFLSARSDGRITLSAPLCRGWENFHFRKDASEVSGVIVSHRIDGKIITFFIQDRTDIIQSILFGGDFYERDTLDLIRDRSTPGKVFVDIGANIGNHSIFMSKFCSPSEVIVFEPNPKAIEILKLNVLLNACANINTSYLGLALGSKAAQMRVFSPDPNNMGRAQMLDDDDGNVKCVAGDLLLQQKPVGLLKIDVEGSEFEVLRGMQGTIETWRPNILIEVWPQSQQDLFSWCDSFRYVVQETFPTDNNYFLAPIERQS | not soluble
12 | MGSDKIHHHHHHMLSVTRYSIKNVRLKPWVKFIWYFETKSNILLNNKLLPTDSIDIILNLSDVMEYKIENQDYTASNMHFNGIRDKHGFIIQHGNIRVIGISFYPFGLYPFLKIPISEFNRQIVDLEAVSQLFAKKLEESLNPIQSVEKIVLYLEEVLLSILEEDLISNKYVKLLNSFIYVNRYSNIKAFCDDTNINIKTLERICLKYTGYTPKILKRIYRFKMASNQLIYNYKDDELFDFIYENEYYDQAHFIKEFKKFSGTSPIKFSGENKTIKENIKYSYL | not soluble
13 | MGSDKIHHHHHHCQTQVETAPTSDVIKLQQTALASQLGYDIVESLTVEVGPRLAGSPKDIIAVNWAINKLTSLGFDRVYKEPVQVPIWERGEAKAKITFPVEQPLVITALGGSIATPAGGIQAKIARFDSLEALQQAKPEDVQGKIAFIDQKTERHITGEGYGKSVGGRSKGAVVAAQKGAVAIVIRSIGTDHDRMAHTGVMRYQDDVPKIPAAAMSNPDADLVDALLKRNPDALLELQMSPKNAGFNTSYNVIAEVTGSSKPNEIVLIGAHLDSWDEGTGAIDDGAGVAIVTAAAKHIQDLLVKPARTVRVVLYAAEEIGLVGGKAYAETHKAELPLHYIAAESDFGAGRIYQIDTKVNESAFAEVQHALSPMSFNGVALGNNQASGGPDVSMLPALGVPVASLRQDGHDYFDYHHTPNDTLDKIDPAALAQNVAAYAQFAYIMANSTPTLTPLVIQSEK | not soluble
14 | MGSDKIHHHHHHMLSRFSDSRPAVTVKNVALTYSGADKPALQIEDLTIPEGQCVVLCGQSDSGKSSFLKMLNGLTPEYYPAQLSGQIFLGDLDLQKSSLEEISRHIASVFQHPSTQFFHSQVLQELVFPCENQGLSREEIENRLAWVMELFGLASLSRRTISSLSGGQQQRLALAVTAMQGTDVLVLDEPTANLDQEGIAIVEDILKTLKSQGKTIIIAEHRLSYLSQLADRYLYFQDGQVVTDYLADEFLSRTEECRQDMGLRCYDSEPYGRAIAELADQFVNDKEGLLVENLSVSQKENTLYEIEKLCLASGQVVGLVGANGSGKTSLARYLVGLAEDKKSRISWQGQTLSSRQRLEKTAFVMQDVRLQLFAESVERELTLGRKNRAVDEHLVARFGLSDLLERHPVSLSGGEQQRVMIVASLLADKEIFIFDEPTSGLDLRRMQQVASALVDLKMKNKLVLLISHDEELLNLVCDKIVDIKQLK | not soluble
15 | AEVEHYEPLQVHVQLEKVYLDGDVSIEHKHEKVFSMDDFWAAYAGWTLVEQKKGYVLFRKQMDDISPLSKVNGYIGVSDNGVISTFHGRPEPASEPIQSFFQIDLERLESHMQKNLLKGIPFRTKAEFEDVIEHMKTYSG | soluble
16 | MGSDKIHHHHHHMKTKVAAIYGKRDVRLRVFELPEITDNELLVSVISDSVCLSTWKAALLGSEHKRVPDDLENHPVITGHECAGVIVEVGKNLTGKYKKGQRFVLQPAMGLPSGYSAGYSYEYFGGNATYMIIPEIAINLGCVLPYHGSYFAAASLAEPMCCIIGAYHANYHTTQYVYEHRMGVKPGGNIALLACAGPMGIGAIDYAINGGIQPSRVVVVDIDDKRLAQVQKLLPVELAASKGIELVYVNTKGMSDPVQMLRALTGDAGFDDIFVYAAVPAVVEMADELLAEDGCLNFFAGPTDKNFKVPFNFYNVHYNSTHVVGTSGGSTDDMKEAIALSATGQLQPSFMVTHIGGLDAVPETVLNLPDIPGGKKLIYNGVTMPLTAIADFAEKGKTDPLFKELARLVEETHGIWNEQAEKYLLAQFGVDIGEAAQ | not soluble
17 | MAVPESKEALIKAINSQFTLLMKKIDAVPAERAFSPEMAGHAQGTQMSPANLVAYLLGWGNVVLKWHEDEEQGKTIDFPEAGYKWNQLGLLAQKFYQDYAPITDWAELIALLAANKLALIALVERYTDEQLYGEGWYGKWTRGRMIQFNTAAPYKNAAGRLRTWEKNKLEHHHHHH | not soluble
